Experiment [1] concerns the target T1, gp70 B.HXB2/BALV1V2 (murine leukemia virus; HIV-1).
T1 chain: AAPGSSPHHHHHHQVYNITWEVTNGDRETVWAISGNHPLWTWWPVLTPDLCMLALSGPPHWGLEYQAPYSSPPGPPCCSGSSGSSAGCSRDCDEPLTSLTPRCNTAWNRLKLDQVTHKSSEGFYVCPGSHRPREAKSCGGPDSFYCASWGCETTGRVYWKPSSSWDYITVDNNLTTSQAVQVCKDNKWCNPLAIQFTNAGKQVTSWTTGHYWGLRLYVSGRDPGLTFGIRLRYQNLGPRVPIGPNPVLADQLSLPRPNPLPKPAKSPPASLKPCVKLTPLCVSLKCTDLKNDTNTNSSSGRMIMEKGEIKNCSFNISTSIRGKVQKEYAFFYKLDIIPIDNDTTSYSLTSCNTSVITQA
Description: ELISA, mAb 0.001-100 ug/ml on coated V1V2 scaffold, OD450. In general terms: An ELISA detects its analyte on a solid surface through an enzyme-linked reagent.

A further experiment addresses T2, J08 B.HXB2/BALV1V2 (HIV-1).
T2 construct: also called J08 B.HXB/BAL V1V2
T2 chain: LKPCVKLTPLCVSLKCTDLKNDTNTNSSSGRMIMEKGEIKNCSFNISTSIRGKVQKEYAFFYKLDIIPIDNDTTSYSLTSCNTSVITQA
Described as above.

The target of experiment [2] is T3, J08 B.HXB2/BALV1V2N156QN160Q (HIV-1).
T3 chain: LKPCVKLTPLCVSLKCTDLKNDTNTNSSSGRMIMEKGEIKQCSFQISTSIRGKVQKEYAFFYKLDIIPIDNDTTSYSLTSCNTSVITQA
The experiment is described as above.

Experiment [3] deals with T4, gp70 B.HXB2/BALV1V2/N156QN160Q (murine leukemia virus; HIV-1).
T4 chain: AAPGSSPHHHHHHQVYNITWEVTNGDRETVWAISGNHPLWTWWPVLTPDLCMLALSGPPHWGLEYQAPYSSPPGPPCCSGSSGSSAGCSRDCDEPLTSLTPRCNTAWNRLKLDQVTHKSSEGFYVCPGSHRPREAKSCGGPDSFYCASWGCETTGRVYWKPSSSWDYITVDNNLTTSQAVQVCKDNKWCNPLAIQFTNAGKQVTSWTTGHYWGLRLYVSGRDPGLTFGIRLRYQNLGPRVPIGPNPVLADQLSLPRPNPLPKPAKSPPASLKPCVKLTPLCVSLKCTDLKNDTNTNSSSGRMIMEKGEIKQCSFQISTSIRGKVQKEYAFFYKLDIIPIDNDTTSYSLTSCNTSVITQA
The description is as above.

In experiment [4] the target is T5, J08 A.92RW020V1V2/N156QN160Q (HIV-1).
T5 construct: also called J08 A.92RW020VV1V2/N156QN160Q
The experiment is described as above.

Another experiment deals with G.con gp140CF. Briefly: ELISA, OD405 at 10 ug/ml.
In a further experiment the target is Con 6 gp120. Briefly: ELISA, OD405 at 10 ug/ml.
A further experiment has as its target B.040 gp140C. Briefly: ELISA, OD405 at 10 ug/ml.
The next experiment addresses B.Case A2 V1/V2 tags. Description: ELISA, OD405 at 10 ug/ml.
The next experiment addresses T6, B.62357 gp140C.
T6 construct: also called B.62357 140C
Description: ELISA, OD405 at 10 ug/ml.

The next experiment addresses B.con gp140CF. Description: ELISA, OD405 at 10 ug/ml.
For a further experiment, the target named is AE.con gp140CF. Description: ELISA, OD405 at 10 ug/ml.
A further experiment has as its target D.9009SA V1/V2 tags. Briefly: ELISA, OD405 at 10 ug/ml.
The next experiment deals with T7, C.1086 gp140.
T7 construct: also called C.1086gp140C
Briefly: ELISA, OD405 at 10 ug/ml.

The target in another experiment is B.63521_V1/V2 tags. Briefly: ELISA, OD405 at 10 ug/ml.
In the next experiment the target is T8, A.9004SS V1/V2 tags.
T8 V1V2 tags construct: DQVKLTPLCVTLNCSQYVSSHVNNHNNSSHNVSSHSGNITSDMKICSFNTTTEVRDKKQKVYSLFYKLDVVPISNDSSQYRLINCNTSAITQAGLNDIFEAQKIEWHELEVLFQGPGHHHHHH
Briefly: ELISA, OD405 at 10 ug/ml.

Experiment [5] has as its target T1, gp70 B.HXB2/BALV1V2. Briefly: ELISA, mAb 0.001-100 ug/ml on coated V1V2 scaffold, OD450.
The target in the next experiment is gp70 A.92RW020V1V2 (murine leukemia virus; HIV-1). Described as above.
In another experiment the target is T9, J08 C.97ZA012V1V2 (HIV-1).
T9 chain: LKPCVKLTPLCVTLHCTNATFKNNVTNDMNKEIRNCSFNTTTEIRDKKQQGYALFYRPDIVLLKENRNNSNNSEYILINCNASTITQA
The description is as above.

In experiment [6] the target is T3, J08 B.HXB2/BALV1V2N156QN160Q. The experiment is described as above.
Experiment [7] addresses T4, gp70 B.HXB2/BALV1V2/N156QN160Q. Described as above.

Where two headings read alike, the source gives them in different places.

B1: CH59 (antibody, V domains shown)
VH: EVQLVESGGGLVQPGRSLRLSCAASGFTFDDGAMHWVRQAPGKGLEWVSGISWNSNIIAYADSVKGRFTISRDNAKNSLYLEMNSLRVEDTALYYCAKDSPRGELPLNYWGQGTLVTVSS
VL: SYELTQPPSVSVSPGQTARITCSGDALPKNYAYWYQQKSGQAPVLVIYEDSKRPSGIPERFSGSSSGTMATLTISGAQVEDEADYYCYSTDSSGNHRVFGGGTKLTVL
notes: also called mAb CH59
B1: the binding result (with gp70 B.HXB2/BALV1V2 [1]; with J08 B.HXB2/BALV1V2; in experiment [2]; in experiment [3]; in experiment [4]) was “no binding (tested: 100 ug/ml)” throughout.

B2: CH59 reverted unmutated ancestor antibody (antibody, V domains shown)
VH: EVQLVESGGGLVQPGRSLRLSCAASGFTFDDYAMHWVRQAPGKGLEWVSGISWNSGSIGYADSVKGRFTISRDNAKNSLYLQMNSLRAEDTALYYCAKDSPRGELPFDYWGQGTLVTVSS
VL: SYELTQPPSVSVSPGQTARITCSGDALPKKYAYWYQQKSGQAPVLVIYEDSKRPSGIPERFSGSSSGTMATLTISGAQVEDEADYYCYSTDSSGNHRVFGGGTKLTVL
notes: also called CH59 RUA; CH59_RUA
With B2, the binding result in the experiment with G.con gp140CF, with Con 6 gp120, in the experiment with B.040 gp140C, in the experiment with B.Case A2 V1/V2 tags, with B.62357 gp140C and with B.con gp140CF was “no binding (tested: 10 ug/ml)” throughout. The binding result in the experiment with AE.con gp140CF, with D.9009SA V1/V2 tags, in the experiment with C.1086 gp140, with B.63521_V1/V2 tags and with A.9004SS V1/V2 tags was “no binding (tested: 10 ug/ml)” each time.

B3: PG16 (antibody, V domains shown)
VH: QEQLVESGGGVVQPGGSLRLSCLASGFTFHKYGMHWVRQAPGKGLEWVALISDDGMRKYHSDSMWGRVTISRDNSKNTLYLQFSSLKVEDTAMFFCAREAGGPIWHDDVKYYDFNDGYYNYHYMDVWGKGTTVTVSS
VL: QSALTQPASVSGSPGQTITISCNGTSSDVGGFDSVSWYQQSPGKAPKVMVFDVSHRPSGISNRFSGSKSGNTASLTISGLHIEDEGDYFCSSLTDRSHRIFGGGTKVTVL
notes: also called mAb PG16; bnAb PG16
On to B3, for which the binding result (with gp70 B.HXB2/BALV1V2 [5]; with gp70 A.92RW020V1V2; with J08 C.97ZA012V1V2; in [6]; in experiment [7]) was “no binding (tested: 100 ug/ml)” throughout.

The values are drawn from patent US9988424 (DUKE UNIVERSITY, dated 2018).
